According to the Immune Epitope Database (IEDB):
pKd: −log10 of the molar value.

How the values were obtained:
HLA-A*30:02 = experiment: IEDB peptide-MHC binding, purified MHC/competitive/radioactivity; filed as Kd, often an IC50 or EC50 that approximates it; ≥ and ≤ were set here for values at or beyond the usual limits of such assays
HLA-A*26:01 = experiment: as above
HLA-B*15:01 = experiment: as above
HLA-B*35:01 = experiment: as above
HLA-A*24:02 = experiment: as above
HLA-A*29:02 = experiment: as above
HLA-A*01:01 = experiment: as above
HLA-A*23:01 = experiment: as above
HLA-B*51:01 = experiment: as above
HLA-B*53:01 = experiment: as above
HLA-A*32:01 = experiment: as above
HLA-B*18:01 = experiment: IEDB peptide-MHC binding, purified MHC/direct/fluorescence; filed as Kd, often an IC50 or EC50 that approximates it; ≥ and ≤ were set here for values at or beyond the usual limits of such assays; conditions: source organism: Influenza A virus (A/tern/Australia/1/04(H2N5))
HLA-B*40:01 = experiment: as above; conditions: source organism: Influenza A virus (A/tern/Australia/1/04(H2N5))
HLA-B*44:02 = experiment: as above; conditions: source organism: Influenza A virus (A/tern/Australia/1/04(H2N5))
HLA-A*30:01 = experiment: IEDB peptide-MHC binding, purified MHC/competitive/radioactivity; filed as Kd, often an IC50 or EC50 that approximates it; ≥ and ≤ were set here for values at or beyond the usual limits of such assays
HLA-B*57:01 = experiment: IEDB peptide-MHC binding, purified MHC/direct/fluorescence; filed as Kd, often an IC50 or EC50 that approximates it; ≥ and ≤ were set here for values at or beyond the usual limits of such assays; conditions: source organism: Vibrio alginolyticus 12G01
HLA-B*58:01 = experiment: as above; conditions: source organism: Vibrio alginolyticus 12G01
HLA-A*03:01 = experiment: IEDB peptide-MHC binding, purified MHC/competitive/radioactivity; filed as Kd, often an IC50 or EC50 that approximates it; ≥ and ≤ were set here for values at or beyond the usual limits of such assays; conditions: source organism: Triticum aestivum
HLA-A*68:01 = experiment: as above; conditions: source organism: Triticum aestivum
HLA-A*11:01 = experiment: as above; conditions: source organism: Triticum aestivum
HLA-A*33:01 = experiment: as above; conditions: source organism: Triticum aestivum
HLA-A*31:01 = experiment: as above; conditions: source organism: Triticum aestivum
[1] = source organism: Dengue virus 3 Sri Lanka/1266/2000
[2] = source organism: SARS coronavirus Tor2
[3] = source organism: Dengue virus 1 Brazil/97-11/1997
[4] = source organism: Dengue virus 1 Nauru/West Pac/1974
[5] = source organism: Dengue virus 4 Philippines/H241/1956
[6] = source organism: Vaccinia virus WR
[7] = source organism: Dengue virus 2 Jamaica/1409/1983
[8] = source organism: Lassa virus Josiah
[9] = source organism: Mammarenavirus guanaritoense
[10] = source organism: Triticum aestivum

Sequence: LIVSGIFPY
- pKd (HLA-A*30:02; [1]): ≤ 4.11
- pKd (HLA-A*26:01; [1]): 5.94
- pKd (HLA-B*15:01; [1]): 8.54
- pKd (HLA-B*35:01; [1]): 7.08

Sequence: LKEPCPSGTY
- pKd (HLA-A*30:02; [2]): 7.16
- pKd (HLA-A*24:02; [2]): ≤ 4.15
- pKd (HLA-A*29:02; [2]): 5.81
- pKd (HLA-A*26:01; [2]): 5.26
- pKd (HLA-A*01:01; [2]): 4.85
- pKd (HLA-A*23:01; [2]): ≤ 4.15

Sequence: LPTALAFHL
- pKd (HLA-B*51:01; [3]): 5.85
- pKd (HLA-B*53:01; [3]): 8.67

Sequence: LTKHPNQEY
- pKd (HLA-A*30:02; [2]): 6.82
- pKd (HLA-A*24:02; [2]): ≤ 4.11
- pKd (HLA-A*29:02; [2]): 5.47
- pKd (HLA-A*26:01; [2]): ≤ 4.46
- pKd (HLA-A*01:01; [2]): 4.76
- pKd (HLA-A*23:01; [2]): ≤ 4.11

Sequence: LYAVATTII
- pKd (HLA-B*51:01; [4]): 5.86
- pKd (HLA-A*24:02; [4]): 7.22
- pKd (HLA-A*23:01; [4]): 6.68

Sequence: LYIIKLVFL
- pKd (HLA-A*30:02; [2]): 4.87
- pKd (HLA-A*24:02; [2]): 9.57
- pKd (HLA-A*29:02; [2]): 5.51
- pKd (HLA-A*26:01; [2]): ≤ 4.68
- pKd (HLA-A*01:01; [2]): 5.67
- pKd (HLA-A*23:01; [2]): 9.75

Sequence: MAMTCIAVG
- pKd (HLA-B*35:01; [5]): 6.94

Sequence: MLFYLEEPI
- pKd (HLA-A*32:01; [6]): 8.60
- pKd (HLA-B*15:01; [6]): 7.34

Sequence: MLHNFLPHM
- pKd (HLA-B*15:01; [6]): 7.39

Sequence: MSPCRMFSF
- pKd (HLA-B*15:01; [6]): 7.76

Sequence: NKDGFLYVY
- pKd (HLA-A*30:02; [2]): 5.55
- pKd (HLA-A*24:02; [2]): ≤ 4.11
- pKd (HLA-A*29:02; [2]): 5.95
- pKd (HLA-A*26:01; [2]): 4.84
- pKd (HLA-A*01:01; [2]): 4.86
- pKd (HLA-A*23:01; [2]): ≤ 4.11

Sequence: NVINYFNRM
- pKd (HLA-B*15:01; [6]): 6.02

Sequence: PFGDSYIVI
- pKd (HLA-A*23:01; [5]): 6.14

Sequence: PFVVSTGYHF
- pKd (HLA-A*30:02; [2]): 4.93
- pKd (HLA-A*24:02; [2]): 7.17
- pKd (HLA-A*29:02; [2]): 6.59
- pKd (HLA-A*26:01; [2]): 6.01
- pKd (HLA-A*01:01; [2]): 5.31
- pKd (HLA-A*23:01; [2]): 8.52

Sequence: PVSDLKYSW
- pKd (HLA-B*53:01; source organism: Dengue virus 4 Dominica/814669/1981): 5.77

Sequence: PYPDPSRIL
- pKd (HLA-A*30:02; [2]): ≤ 4.12
- pKd (HLA-A*24:02; [2]): ≤ 4.08
- pKd (HLA-A*29:02; [2]): ≤ 4.44
- pKd (HLA-A*26:01; [2]): ≤ 4.11
- pKd (HLA-A*01:01; [2]): ≤ 4.11
- pKd (HLA-A*23:01; [2]): 4.70

Sequence: RQMEGEGIF
- pKd (HLA-A*32:01; [7]): 6.85
- pKd (HLA-B*15:01; [7]): 8.23

Sequence: RSFTFKEGF
- pKd (HLA-B*15:01; [6]): 7.46

Sequence: SETQGTEKL
- pKd (HLA-B*18:01): 5.69
- pKd (HLA-B*40:01): 7.98
- pKd (HLA-B*44:02): ≤ 4.70

Sequence: SIISLFYTF
- pKd (HLA-A*32:01; [6]): 8.24
- pKd (HLA-B*15:01; [6]): 8.86

Sequence: SIKNLVSQF
- pKd (HLA-B*15:01; [6]): 7.61

Sequence: SSGCYIHFF
- pKd (HLA-A*30:02; [8]): 4.94
- pKd (HLA-A*32:01; [8]): ≤ 4.47
- pKd (HLA-A*29:02; [8]): ≤ 5.00
- pKd (HLA-A*26:01; [8]): ≤ 4.19
- pKd (HLA-A*01:01; [8]): 6.71
- pKd (HLA-A*30:01; [8]): 5.16

Sequence: STGNYVHCF
- pKd (HLA-A*30:02; [9]): ≤ 4.69
- pKd (HLA-A*32:01; [9]): 4.92
- pKd (HLA-A*29:02; [9]): ≤ 4.44
- pKd (HLA-A*26:01; [9]): ≤ 4.16
- pKd (HLA-A*01:01; [9]): 5.89
- pKd (HLA-A*30:01; [9]): 5.56

Sequence: TAVAPSMTM
- pKd (HLA-B*35:01; [7]): 7.80

Sequence: VFIWFIFHF
- pKd (HLA-B*15:01; source organism: Vaccinia virus): 6.19

Sequence: VSEPELCLL
- pKd (HLA-B*57:01): ≤ 4.70
- pKd (HLA-B*58:01): ≤ 4.70

Sequence: VSFQQPQQQY
- pKd (HLA-A*30:02; [10]): 9.68
- pKd (HLA-A*03:01): ≤ 4.15
- pKd (HLA-A*68:01): ≤ 4.15
- pKd (HLA-A*24:02; [10]): ≤ 4.15
- pKd (HLA-A*29:02; [10]): 7.26
- pKd (HLA-A*11:01): 5.75
- pKd (HLA-A*26:01; [10]): ≤ 4.58
- pKd (HLA-A*33:01): ≤ 4.15
- pKd (HLA-A*31:01): ≤ 4.15
- pKd (HLA-A*23:01; [10]): ≤ 4.41

Sequence: VTYLALLAAF
- pKd (HLA-A*26:01; [7]): ≤ 4.16
- pKd (HLA-B*15:01; [7]): 7.39
- pKd (HLA-A*01:01; [7]): 4.83

Sequence: WIAASIILEF
- pKd (HLA-B*15:01; [7]): 8.21

Sequence: YSDPLALREF
- pKd (HLA-A*01:01; [3]): 7.67
- pKd (HLA-B*35:01; [3]): 5.72
- pKd (HLA-B*53:01; [3]): 6.05
